Numbering of substitutions follows the chain as printed.
T1: soluble mouse GPNMB (recombinant extracellular domain) (mouse, UniProt Q99P91 23-502)
T1 construct: also called moGPNMB; not shown: C-terminal polyhistidine or Avi-His tag
T1 sequence: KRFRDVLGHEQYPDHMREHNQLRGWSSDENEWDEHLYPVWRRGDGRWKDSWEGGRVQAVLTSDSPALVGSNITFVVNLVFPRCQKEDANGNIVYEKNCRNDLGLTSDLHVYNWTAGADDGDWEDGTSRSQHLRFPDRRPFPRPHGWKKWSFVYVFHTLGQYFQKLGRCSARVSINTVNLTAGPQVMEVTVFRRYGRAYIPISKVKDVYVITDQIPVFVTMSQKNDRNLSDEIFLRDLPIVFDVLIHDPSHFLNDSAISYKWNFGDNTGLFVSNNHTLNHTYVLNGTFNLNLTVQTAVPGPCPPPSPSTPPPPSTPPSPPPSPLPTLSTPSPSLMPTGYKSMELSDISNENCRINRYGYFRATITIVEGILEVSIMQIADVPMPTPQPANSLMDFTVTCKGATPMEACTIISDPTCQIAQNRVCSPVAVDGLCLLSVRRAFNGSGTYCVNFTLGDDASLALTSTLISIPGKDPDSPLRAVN

T2: soluble cynomolgus GPNMB (recombinant extracellular domain) (cynomolgus, UniProt Q14956 23-499 (human entry), limits assumed)
T2 chain: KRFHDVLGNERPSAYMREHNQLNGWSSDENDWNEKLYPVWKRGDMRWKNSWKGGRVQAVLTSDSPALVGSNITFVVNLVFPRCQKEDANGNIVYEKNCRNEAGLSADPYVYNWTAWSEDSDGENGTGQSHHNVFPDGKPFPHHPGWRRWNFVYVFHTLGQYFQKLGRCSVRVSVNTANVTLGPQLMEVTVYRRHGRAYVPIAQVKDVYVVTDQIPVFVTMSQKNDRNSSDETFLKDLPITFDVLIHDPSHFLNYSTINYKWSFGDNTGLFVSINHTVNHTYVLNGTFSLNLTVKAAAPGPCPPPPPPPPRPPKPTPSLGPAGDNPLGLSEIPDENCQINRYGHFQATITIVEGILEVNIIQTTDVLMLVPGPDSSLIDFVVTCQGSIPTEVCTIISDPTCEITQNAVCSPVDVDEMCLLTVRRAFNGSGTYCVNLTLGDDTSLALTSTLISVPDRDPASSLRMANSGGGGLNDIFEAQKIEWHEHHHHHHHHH

T3: soluble human GPNMB (recombinant extracellular domain) (human, UniProt Q14956 23-498)
T3 construct: also called huGPNMB; recombinant human GPNMB extracellular domain; not shown: C-terminal polyhistidine or Avi-His tag
T3 sequence: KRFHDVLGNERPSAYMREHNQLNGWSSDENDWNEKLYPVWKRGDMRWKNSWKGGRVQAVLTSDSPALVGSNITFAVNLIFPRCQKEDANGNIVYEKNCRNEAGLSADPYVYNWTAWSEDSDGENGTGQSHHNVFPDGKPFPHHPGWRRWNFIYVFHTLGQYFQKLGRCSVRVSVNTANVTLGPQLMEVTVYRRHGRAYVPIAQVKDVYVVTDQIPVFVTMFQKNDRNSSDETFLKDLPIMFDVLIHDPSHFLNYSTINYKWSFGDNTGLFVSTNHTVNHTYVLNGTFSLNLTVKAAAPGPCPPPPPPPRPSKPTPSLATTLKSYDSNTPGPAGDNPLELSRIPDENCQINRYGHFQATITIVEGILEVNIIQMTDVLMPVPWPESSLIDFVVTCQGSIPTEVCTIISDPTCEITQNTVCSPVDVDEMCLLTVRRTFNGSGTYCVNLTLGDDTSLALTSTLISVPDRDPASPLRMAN

T4: full-length untagged human GPNMB expressed on cells (human, UniProt Q14956 23-572)
T4 sequence: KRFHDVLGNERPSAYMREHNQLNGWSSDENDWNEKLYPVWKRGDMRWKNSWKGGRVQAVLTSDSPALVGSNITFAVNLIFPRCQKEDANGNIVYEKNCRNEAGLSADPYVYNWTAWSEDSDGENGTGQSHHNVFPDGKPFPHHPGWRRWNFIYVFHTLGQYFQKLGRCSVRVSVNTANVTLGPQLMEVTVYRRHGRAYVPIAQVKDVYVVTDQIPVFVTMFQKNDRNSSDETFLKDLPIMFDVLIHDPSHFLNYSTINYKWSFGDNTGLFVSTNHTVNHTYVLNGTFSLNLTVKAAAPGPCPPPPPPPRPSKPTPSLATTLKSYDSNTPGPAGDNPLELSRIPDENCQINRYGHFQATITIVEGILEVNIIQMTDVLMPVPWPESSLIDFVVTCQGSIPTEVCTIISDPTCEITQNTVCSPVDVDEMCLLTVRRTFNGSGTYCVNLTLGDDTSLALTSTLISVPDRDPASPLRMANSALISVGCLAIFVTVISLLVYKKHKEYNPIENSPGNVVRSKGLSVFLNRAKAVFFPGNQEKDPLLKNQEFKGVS

B1: anti-GPNMB antibody GPN-92 (antibody, V domains shown)
VH: QVQLVQSGAEVKKPGASVKVSCKASGYTFTSYWMHWVRQAPGQGLEWMGEINPSDGRTNYAQKFQGRVTMTVDKSTSTVYMELSSLRSEDTAVYYCARSGGNYAWFAYWGQGTLVTVSS
VL: DIVMTQSPDSLAVSLGERATINCKASQDVSPSLAWYQQKPGQPPKLLIYSASYRYTGVPDRFSGSGSGTDFTLTISSLQAEDVAVYYCQQHYSIPLTFGGGTKVEIK
notes: humanized GPN-08
B2: anti-GPNMB antibody GPN-95 (antibody, V domains shown)
VH: B1 VH with S54Y, G56Q, G100T
VL: B1 VL with A25T, S52R, T97Q
notes: also called PGN-95
B3: anti-GPNMB antibody GPN-96 (antibody, V domains shown)
VH: B1 VH with S54Y, G56Q, G100T
VL: B1 VL with S50R
B4: anti-GPNMB antibody GPN-94 (antibody, V domains shown)
VH: B1 VH with S54Y, G56Q, G100T
VL: B1 VL with A25T, Y53K
B5: anti-GPNMB antibody GPN-93 (antibody, V domains shown)
VH: B1 VH with S54Y, G56Q, G100T
VL: B1 VL with A25T, Y53K, T97Q
B6: anti-GPNMB antibody GPN-82 (antibody, V domains shown)
VH: QVQLQESGPGLVKPSETLSLTCTVSGISITTGNYRWSWIRQPPGKGLEWIGYIYYSGTIIYNPSLKSRVTITRDTSKNQFSLELSSVTAADTAVYYCARDLTHWYFDVWGQGTLVTVSS
VL: DIVMTQSPDSLAVSLGERATINCKSSRSVDYYGIGFLNWYQQKPGQPPKLLIYATSTQGSGVPDRFSGSGSGTDFTLTISSLQAEDVAVYYCQQQKEVPPTFGGGTKVEIK

Each binder was assayed against T1, soluble mouse GPNMB (recombinant …) (assay: SPR Biacore T200, IgG captured on Protein A/G; nb = no binding observed).

Binder	binding result
B1	no binding (tested: 300 nM highest analyte concentration)
B2	no binding (tested: 300 nM highest analyte concentration)
B3	no binding (tested: 300 nM highest analyte concentration)
B4	no binding (tested: 300 nM highest analyte concentration)
B5	no binding (tested: 300 nM highest analyte concentration)

Molecular target: T2, soluble cynomolgus GPNMB (recombinant …)
Test: SPR Biacore, IgG captured
Experimental: (§1) Binding kinetics of the humanized and affinity matured anti-GPNMB antibodies described above were evaluated using the Biacore T200 (Cytiva). Briefly, IgGs were diluted to 10 μg/mL and captured using a Protein A/G (ThermioFisher, #21186) surface on a CM5 chip that was prepared by amine coupling according to the instrument manufacturer's recommendations. The captured antibodies were tested for their ability to bind human, cynomolgus monkey, and mouse GPNMB recombinant proteins as follows.
(§2) Human, cynomolgus, and mouse GPNMB analytes were diluted in running buffer (HBS-EP+, Teknova, #8022, with 0.5 mg/ml BSA, MP Biomedicals LLC, #820451), to a concentration of 300 nM, then diluted 3-fold serially to 100 nM, 33 nM, and 11 nM. Each sample was injected for 2 minutes to allow association, followed by dissociation in buffer alone for 10 minutes. Each sample injection was followed by the regeneration of the chip with three 30-second injections of 10 mM glycine, pH 1.7. Fresh antibody was captured at the beginning of each cycle.
(§3) Data were analyzed using Biacore evaluation software to generate kinetic constants. The equilibrium dissociation constants (KD) were calculated from the fitted association and dissociation rate constants (k-on and k-off) for each of the anti-GPNMB antibodies.

Kd	koff	kon	Binder
13.5 nM	0.0022 s⁻¹	160000 M⁻¹ s⁻¹	B6
67.8 nM	0.0057 s⁻¹	83000 M⁻¹ s⁻¹	B1
8.3 nM	0.0006 s⁻¹	71000 M⁻¹ s⁻¹	B2
3.2 nM	0.00025 s⁻¹	77000 M⁻¹ s⁻¹	B3
6.5 nM	0.00051 s⁻¹	78000 M⁻¹ s⁻¹	B4
10.6 nM	0.00071 s⁻¹	67000 M⁻¹ s⁻¹	B5

These binders were tested against T1, soluble mouse GPNMB (recombinant …) (assay: SPR Biacore, IgG captured).
Experimental: as §1, §2, §3

Kd	koff	kon	Binder
2.6 nM	0.00039 s⁻¹	150000 M⁻¹ s⁻¹	B6

These binders were tested against T3, soluble human GPNMB (recombinant …) (assay: SPR Biacore, IgG captured).
Experimental: as §1, §2, §3

Kd	koff	kon	Binder
11.9 nM	0.0024 s⁻¹	200000 M⁻¹ s⁻¹	B6
66.5 nM	0.005 s⁻¹	75000 M⁻¹ s⁻¹	B1
7.3 nM	0.00053 s⁻¹	73000 M⁻¹ s⁻¹	B2
2.5 nM	0.0002 s⁻¹	78000 M⁻¹ s⁻¹	B3
5.4 nM	0.00042 s⁻¹	78000 M⁻¹ s⁻¹	B4
8.7 nM	0.00059 s⁻¹	68000 M⁻¹ s⁻¹	B5

What follows are binders tested against T4, full-length untagged human GPNMB … (assay: cell-based or functional assay).

EC50 PDL1	Fold Increase CD40 (max response at 1 µg/ml)	Fold Increase PDL1 (max response at 1 µg/ml)	Binder
1.94 nM	2.29 fold	4.6 fold	B6
1.36 nM	1.59 fold	1.99 fold	B1
0.7 nM	1.74 fold	1.97 fold	B2
0.58 nM	1.72 fold	1.9 fold	B3
1.14 nM	1.72 fold	1.88 fold	B4
–	1.87 fold	2.18 fold	B5

Molecular target: T4, full-length untagged human GPNMB …
Test: cell-based or functional assay
Remark: another data set of the same source

Inflammasome: Fold Decrease IL-1β (max response at 0.3 µg/ml)	Binder
0.378 fold	B6
0.45 fold	B2
0.525 fold	B3
0.532 fold	B4
0.594 fold	B5

Molecular target: T4, full-length untagged human GPNMB …
Test: cell-based or functional assay
Remark: another data set of the same source

EC50 GCase	EC50 Lyso Tracker	Fold Decrease Lyso Tracker (max response at 1 µg/ml)	Fold Increase GCase (max response at 1 µg/ml)	Binder
0.365 nM	0.64 nM	0.569 fold	1.54 fold	B6
0.27 nM	–	–	1.25 fold	B1
0.23 nM	–	–	1.33 fold	B2
0.23 nM	–	–	1.31 fold	B3
0.54 nM	–	–	1.4 fold	B4
0.5 nM	–	–	1.45 fold	B5

The binders below were run against T4, full-length untagged human GPNMB … (assay: FACS titration, FS293-huGPNMB+ cells).
Experimental: Affinity matured anti-GPNMB antibodies of the present disclosure were examined to determine their ability to bind human and mouse GPNMB expressed on FS293-huGPNMB+ or B16F10 cells, respectively. Cell-based affinity measurements were performed to ascertain the apparent affinities of anti-GPNMB antibodies to cell-surface expressed GPNMB. Serial dilutions of anti-GPNMB antibodies of the present disclosure were added to 100,000 FS293-huGPNMB+ or B16F10 cells and allowed to achieve binding equilibrium at 4° C. After addition of fluorescently labeled secondary antibody and brief washing steps, MFI values as a function of titrated antibody concentration were recorded via FACS analysis. Equilibrium binding curves were fit using nonlinear regression analysis with Graphpad Prism 6 software.

EC50	Binder
0.181 nM	B2
0.652 nM	B3
0.186 nM	B4
0.568 nM	B5

Source: patent publication US20250270343A1 (Alector, published 2025)
